Data published in patent publication US20220204580A1 (AstraZeneca / MedImmune, published 2022).
Numbered stars: 1 amine (or outer) side, 2 acyl side, 3 side chain; on linkers, the order of the positions; unused ones are H or OH. Bridge positions count the residues as written; N and C are the ends. Square brackets hold non-standard residues; d marks the D form. Side chains are listed from the residue outwards. Ends that are not written are not given here. * marks the point of attachment. C18 diacid = O=C(O)CCCCCCCCCCCCCCCCC(=O)*; γGlu = O=C(O)[C@H](CCC(=O)[*:2])N[*:1]; Aib = CC(C)(N)C(=O)O

B1: Peptide 70 (SEQ ID NO: 70) (peptide)
peptide: K([γGlu-γGlu-C18 diacid])KCNTATCATQRLANFLVHSS[Aib]NFGPILPPTRVGSNTY-NH2
modifications: disulfide 3-8; N-terminus assumed
SMILES: CC[C@H](C)[C@H](NC(=O)[C@@H]1CCCN1C(=O)CNC(=O)[C@H](Cc1ccccc1)NC(=O)[C@H](CC(N)=O)NC(=O)C(C)(C)NC(=O)[C@H](CO)NC(=O)[C@H](CO)NC(=O)[C@H](Cc1c[nH]cn1)NC(=O)[C@@H](NC(=O)[C@H](CC(C)C)NC(=O)[C@H](Cc1ccccc1)NC(=O)[C@H](CC(N)=O)NC(=O)[C@H](C)NC(=O)[C@H](CC(C)C)NC(=O)[C@H](CCCNC(=N)N)NC(=O)[C@H](CCC(N)=O)NC(=O)[C@@H](NC(=O)[C@H](C)NC(=O)[C@@H]1CSSC[C@H](NC(=O)[C@H](CCCCN)NC(=O)[C@@H](N)CCCCNC(=O)CC[C@H](NC(=O)CC[C@H](NC(=O)CCCCCCCCCCCCCCCCC(=O)O)C(=O)O)C(=O)O)C(=O)N[C@@H](CC(N)=O)C(=O)N[C@@H]([C@@H](C)O)C(=O)N[C@@H](C)C(=O)N[C@@H]([C@@H](C)O)C(=O)N1)[C@@H](C)O)C(C)C)C(=O)N[C@@H](CC(C)C)C(=O)N1CCC[C@H]1C(=O)N1CCC[C@H]1C(=O)N[C@H](C(=O)N[C@@H](CCCNC(=N)N)C(=O)N[C@H](C(=O)NCC(=O)N[C@@H](CO)C(=O)N[C@@H](CC(N)=O)C(=O)N[C@H](C(=O)N[C@@H](Cc1ccc(O)cc1)C(N)=O)[C@@H](C)O)C(C)C)[C@@H](C)O
B2: Peptide 72 (SEQ ID NO: 72) (peptide)
peptide: K([γGlu-γGlu-C18 diacid])CNTATCATQRLANFLVHSS[Aib]NFGPILPPTNVGSRTY-NH2
modifications: disulfide 2-7; N-terminus assumed
SMILES: CC[C@H](C)[C@H](NC(=O)[C@@H]1CCCN1C(=O)CNC(=O)[C@H](Cc1ccccc1)NC(=O)[C@H](CC(N)=O)NC(=O)C(C)(C)NC(=O)[C@H](CO)NC(=O)[C@H](CO)NC(=O)[C@H](Cc1c[nH]cn1)NC(=O)[C@@H](NC(=O)[C@H](CC(C)C)NC(=O)[C@H](Cc1ccccc1)NC(=O)[C@H](CC(N)=O)NC(=O)[C@H](C)NC(=O)[C@H](CC(C)C)NC(=O)[C@H](CCCNC(=N)N)NC(=O)[C@H](CCC(N)=O)NC(=O)[C@@H](NC(=O)[C@H](C)NC(=O)[C@@H]1CSSC[C@H](NC(=O)[C@@H](N)CCCCNC(=O)CC[C@H](NC(=O)CC[C@H](NC(=O)CCCCCCCCCCCCCCCCC(=O)O)C(=O)O)C(=O)O)C(=O)N[C@@H](CC(N)=O)C(=O)N[C@@H]([C@@H](C)O)C(=O)N[C@@H](C)C(=O)N[C@@H]([C@@H](C)O)C(=O)N1)[C@@H](C)O)C(C)C)C(=O)N[C@@H](CC(C)C)C(=O)N1CCC[C@H]1C(=O)N1CCC[C@H]1C(=O)N[C@H](C(=O)N[C@@H](CC(N)=O)C(=O)N[C@H](C(=O)NCC(=O)N[C@@H](CO)C(=O)N[C@@H](CCCNC(=N)N)C(=O)N[C@H](C(=O)N[C@@H](Cc1ccc(O)cc1)C(N)=O)[C@@H](C)O)C(C)C)[C@@H](C)O
B3: Peptide 71 (SEQ ID NO: 71) (peptide)
peptide: {C18 diacid}-[γGlu]KCNTATCATQRLANFLVHSS[Aib]NFGPILPPTRVGSNTY-NH2
modifications: disulfide 3-8
SMILES: CC[C@H](C)[C@H](NC(=O)[C@@H]1CCCN1C(=O)CNC(=O)[C@H](Cc1ccccc1)NC(=O)[C@H](CC(N)=O)NC(=O)C(C)(C)NC(=O)[C@H](CO)NC(=O)[C@H](CO)NC(=O)[C@H](Cc1c[nH]cn1)NC(=O)[C@@H](NC(=O)[C@H](CC(C)C)NC(=O)[C@H](Cc1ccccc1)NC(=O)[C@H](CC(N)=O)NC(=O)[C@H](C)NC(=O)[C@H](CC(C)C)NC(=O)[C@H](CCCNC(=N)N)NC(=O)[C@H](CCC(N)=O)NC(=O)[C@@H](NC(=O)[C@H](C)NC(=O)[C@@H]1CSSC[C@H](NC(=O)[C@H](CCCCN)NC(=O)CC[C@H](NC(=O)CCCCCCCCCCCCCCCCC(=O)O)C(=O)O)C(=O)N[C@@H](CC(N)=O)C(=O)N[C@@H]([C@@H](C)O)C(=O)N[C@@H](C)C(=O)N[C@@H]([C@@H](C)O)C(=O)N1)[C@@H](C)O)C(C)C)C(=O)N[C@@H](CC(C)C)C(=O)N1CCC[C@H]1C(=O)N1CCC[C@H]1C(=O)N[C@H](C(=O)N[C@@H](CCCNC(=N)N)C(=O)N[C@H](C(=O)NCC(=O)N[C@@H](CO)C(=O)N[C@@H](CC(N)=O)C(=O)N[C@H](C(=O)N[C@@H](Cc1ccc(O)cc1)C(N)=O)[C@@H](C)O)C(C)C)[C@@H](C)O
B4: Peptide 73 (SEQ ID NO: 73) (peptide)
peptide: K([γGlu-C18 diacid])KCNTATCATQRLANFLVHSS[Aib]NFGPILPPTNVGSRTY-NH2
modifications: disulfide 3-8; N-terminus assumed
SMILES: CC[C@H](C)[C@H](NC(=O)[C@@H]1CCCN1C(=O)CNC(=O)[C@H](Cc1ccccc1)NC(=O)[C@H](CC(N)=O)NC(=O)C(C)(C)NC(=O)[C@H](CO)NC(=O)[C@H](CO)NC(=O)[C@H](Cc1c[nH]cn1)NC(=O)[C@@H](NC(=O)[C@H](CC(C)C)NC(=O)[C@H](Cc1ccccc1)NC(=O)[C@H](CC(N)=O)NC(=O)[C@H](C)NC(=O)[C@H](CC(C)C)NC(=O)[C@H](CCCNC(=N)N)NC(=O)[C@H](CCC(N)=O)NC(=O)[C@@H](NC(=O)[C@H](C)NC(=O)[C@@H]1CSSC[C@H](NC(=O)[C@H](CCCCN)NC(=O)[C@@H](N)CCCCNC(=O)CC[C@H](NC(=O)CCCCCCCCCCCCCCCCC(=O)O)C(=O)O)C(=O)N[C@@H](CC(N)=O)C(=O)N[C@@H]([C@@H](C)O)C(=O)N[C@@H](C)C(=O)N[C@@H]([C@@H](C)O)C(=O)N1)[C@@H](C)O)C(C)C)C(=O)N[C@@H](CC(C)C)C(=O)N1CCC[C@H]1C(=O)N1CCC[C@H]1C(=O)N[C@H](C(=O)N[C@@H](CC(N)=O)C(=O)N[C@H](C(=O)NCC(=O)N[C@@H](CO)C(=O)N[C@@H](CCCNC(=N)N)C(=O)N[C@H](C(=O)N[C@@H](Cc1ccc(O)cc1)C(N)=O)[C@@H](C)O)C(C)C)[C@@H](C)O

Experiments:
[1] = biological target: T1, human calcitonin receptor (human, UniProt P30988 25-474); assay: cell-based or functional assay
T1 sequence (looked up): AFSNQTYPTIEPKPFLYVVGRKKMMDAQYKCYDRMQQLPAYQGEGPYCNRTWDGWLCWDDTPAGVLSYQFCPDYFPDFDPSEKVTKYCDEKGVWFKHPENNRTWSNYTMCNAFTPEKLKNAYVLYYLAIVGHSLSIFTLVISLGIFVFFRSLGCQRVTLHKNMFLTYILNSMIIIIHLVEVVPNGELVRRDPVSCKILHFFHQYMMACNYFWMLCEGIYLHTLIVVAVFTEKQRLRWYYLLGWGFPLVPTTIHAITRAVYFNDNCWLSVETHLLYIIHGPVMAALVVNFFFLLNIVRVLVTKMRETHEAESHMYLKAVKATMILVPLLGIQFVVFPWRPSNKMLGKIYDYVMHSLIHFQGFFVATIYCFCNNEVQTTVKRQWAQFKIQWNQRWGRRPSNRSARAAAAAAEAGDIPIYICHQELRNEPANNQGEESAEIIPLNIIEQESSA

[2] = biological target: T2, human amylin receptor (calcitonin receptor co-expressed with receptor activity modifying protein, RAMP3) (human, UniProt P30988 25-474; O60896 24-148); assay: cell-based or functional assay
T2 sequence (looked up) 1: T1 sequence (looked up)
T2 sequence (looked up) 2: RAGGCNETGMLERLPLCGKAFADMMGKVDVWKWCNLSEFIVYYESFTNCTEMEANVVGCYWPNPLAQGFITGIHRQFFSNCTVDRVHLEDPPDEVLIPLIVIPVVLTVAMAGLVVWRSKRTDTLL

| Binder | EC50 (cAMP production) [1] [nM] | EC50 (cAMP production) [2] [nM] | Ratio (EC50 hCTR / EC50 hAMYR3) [2] |
| --- | --- | --- | --- |
| B1 | 5.41 | 0.235 | 23 |
| B2 | 4 | 0.227 | 18 |
| B3 | 1.39 | 0.211 | 7 |
| B4 | 1.82 | 0.256 | 7 |
